Target: T1, CasEnd-29 (synthetic construct)
T1 chain: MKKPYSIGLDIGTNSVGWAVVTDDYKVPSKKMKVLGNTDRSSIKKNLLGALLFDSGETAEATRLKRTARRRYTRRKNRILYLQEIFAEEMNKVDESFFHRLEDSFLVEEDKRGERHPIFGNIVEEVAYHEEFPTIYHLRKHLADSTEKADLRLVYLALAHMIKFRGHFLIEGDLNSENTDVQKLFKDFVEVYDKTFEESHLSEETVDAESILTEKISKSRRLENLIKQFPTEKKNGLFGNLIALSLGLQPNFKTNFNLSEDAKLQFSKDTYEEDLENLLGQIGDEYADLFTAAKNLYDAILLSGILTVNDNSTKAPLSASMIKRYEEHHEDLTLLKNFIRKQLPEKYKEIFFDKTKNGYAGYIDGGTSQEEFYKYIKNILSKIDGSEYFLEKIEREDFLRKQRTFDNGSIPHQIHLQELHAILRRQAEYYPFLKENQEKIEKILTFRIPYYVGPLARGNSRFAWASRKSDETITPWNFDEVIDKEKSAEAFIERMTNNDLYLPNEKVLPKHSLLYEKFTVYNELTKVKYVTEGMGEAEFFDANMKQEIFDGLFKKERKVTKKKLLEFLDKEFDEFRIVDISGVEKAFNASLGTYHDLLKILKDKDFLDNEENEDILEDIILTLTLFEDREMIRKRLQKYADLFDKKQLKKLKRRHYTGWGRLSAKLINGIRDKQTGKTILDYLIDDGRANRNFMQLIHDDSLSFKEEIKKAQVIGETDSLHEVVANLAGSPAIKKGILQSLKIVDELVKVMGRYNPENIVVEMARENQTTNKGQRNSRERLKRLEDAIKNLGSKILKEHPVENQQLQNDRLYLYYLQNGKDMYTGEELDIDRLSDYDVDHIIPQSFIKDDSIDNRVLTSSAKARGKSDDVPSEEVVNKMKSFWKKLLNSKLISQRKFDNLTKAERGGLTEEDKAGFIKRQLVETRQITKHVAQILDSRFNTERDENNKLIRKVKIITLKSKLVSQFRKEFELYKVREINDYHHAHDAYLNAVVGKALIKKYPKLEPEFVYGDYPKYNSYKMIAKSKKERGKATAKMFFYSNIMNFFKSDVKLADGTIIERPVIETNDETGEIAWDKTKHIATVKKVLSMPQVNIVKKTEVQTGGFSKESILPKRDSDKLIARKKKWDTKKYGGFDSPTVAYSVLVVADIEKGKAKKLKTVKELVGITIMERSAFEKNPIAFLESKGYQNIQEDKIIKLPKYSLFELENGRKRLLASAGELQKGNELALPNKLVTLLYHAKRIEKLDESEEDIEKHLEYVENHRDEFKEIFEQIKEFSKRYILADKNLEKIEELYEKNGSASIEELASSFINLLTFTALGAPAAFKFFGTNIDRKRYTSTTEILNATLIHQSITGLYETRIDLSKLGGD
Assay: cell_activity; +++; HEK293T; PAM not stated
Outline: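 Editing activity was scored as the fraction of GFP+ cells on day 4 by flow cytometry. BFP-expressing HEK293T cells (250,000) received by nucleofection 200 ng plasmid for the RT-Cas fusion protein and 200 ng template RNA plasmid designed to convert BFP to GFP.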

B1: BFP-to-GFP template RNA ; BFP reporter protospacer (ssRNA ; dsDNA)
RNA: GCCGAAGCACUGCACGCCGUGUUUUAGAGCUAGAAAUAGCAAGUUAAAAUAAGGCUAGUCCGUUAUCAACUUGAAAAAGUGGCACCGAGUCGGUGCACCCUGACGUACGGCGUGCAGUGCUU
DNA 1: GCCGAAGCACTGCACGCCGT
DNA 2: ACGGCGTGCAGTGCTTCGGC
**Q.** Which activity does the source give for B1 here?
**A.** The activity was ≥ 100 % of reference.

Reference: patent US20250092426, “CAS ENDONUCLEASES AND RELATED METHODS” (Flagship Pioneering Innovations VII, LLC, published 2025)
